According to US20110129457A1 (CURIS, published 2011):
Blank lines part the entries; values can stand above or below the binder they belong to.

B7: Hhip1β12 (β-propeller-EGF1-EGF2, residues 193-667), C-terminal His6-tag (receptor)
chain: SNYLDQMEEYDKVEEISRKHKHNCFCIQEVVSGLRQPVGALHSGDGSQRLFILEKEGYVKILTPEGEIFKEPYLDIHKLVQSGIKGGDERGLLSLAFHPNYKKNGKLYVSYTTNQERWAIGPHDHILRVVEYTVSRKNPHQVDLRTARVFLEVAELHRKHLGGQLLFGPDGFLYIILGDGMITLDDMEEMDGLSDFTGSVLRLDVDTDMCNVPYSIPRSNPHFNSTNQPPEVFAHGLHDPGRCAVDRHPTDININLTILCSDSNGKNRSSARILQIIKGKDYESEPSLLEFKPFSNGPLVGGFVYRGCQSERLYGSYVFGDRNGNFLTLQQSPVTKQWQEKPLCLGTSGSCRGYFSGHILGFGEDELGEVYILSSSKSMTQTHNGKLYKIVDPKRPLMPEECRATVQPAQTLTSECSRLCRNGYCTPTGKCCCSPGWEGDFCRTAKCEPACRHGGVCVRPNKCLCKKGYLGPQCEHHHHHH

Legend:
[1] = target: T1, full length human Patched-1 on 293 cells (Ptch1-293 clone 10) (human, UniProt Q13635 1-1447); test: FACS competition: 1 nM Shh649 with inhibitor on Ptch1 expressing cells
T1 construct: whole, on cells; also called Ptch1 expressing cells; Ptch1-293 cells
T1 sequence (looked up): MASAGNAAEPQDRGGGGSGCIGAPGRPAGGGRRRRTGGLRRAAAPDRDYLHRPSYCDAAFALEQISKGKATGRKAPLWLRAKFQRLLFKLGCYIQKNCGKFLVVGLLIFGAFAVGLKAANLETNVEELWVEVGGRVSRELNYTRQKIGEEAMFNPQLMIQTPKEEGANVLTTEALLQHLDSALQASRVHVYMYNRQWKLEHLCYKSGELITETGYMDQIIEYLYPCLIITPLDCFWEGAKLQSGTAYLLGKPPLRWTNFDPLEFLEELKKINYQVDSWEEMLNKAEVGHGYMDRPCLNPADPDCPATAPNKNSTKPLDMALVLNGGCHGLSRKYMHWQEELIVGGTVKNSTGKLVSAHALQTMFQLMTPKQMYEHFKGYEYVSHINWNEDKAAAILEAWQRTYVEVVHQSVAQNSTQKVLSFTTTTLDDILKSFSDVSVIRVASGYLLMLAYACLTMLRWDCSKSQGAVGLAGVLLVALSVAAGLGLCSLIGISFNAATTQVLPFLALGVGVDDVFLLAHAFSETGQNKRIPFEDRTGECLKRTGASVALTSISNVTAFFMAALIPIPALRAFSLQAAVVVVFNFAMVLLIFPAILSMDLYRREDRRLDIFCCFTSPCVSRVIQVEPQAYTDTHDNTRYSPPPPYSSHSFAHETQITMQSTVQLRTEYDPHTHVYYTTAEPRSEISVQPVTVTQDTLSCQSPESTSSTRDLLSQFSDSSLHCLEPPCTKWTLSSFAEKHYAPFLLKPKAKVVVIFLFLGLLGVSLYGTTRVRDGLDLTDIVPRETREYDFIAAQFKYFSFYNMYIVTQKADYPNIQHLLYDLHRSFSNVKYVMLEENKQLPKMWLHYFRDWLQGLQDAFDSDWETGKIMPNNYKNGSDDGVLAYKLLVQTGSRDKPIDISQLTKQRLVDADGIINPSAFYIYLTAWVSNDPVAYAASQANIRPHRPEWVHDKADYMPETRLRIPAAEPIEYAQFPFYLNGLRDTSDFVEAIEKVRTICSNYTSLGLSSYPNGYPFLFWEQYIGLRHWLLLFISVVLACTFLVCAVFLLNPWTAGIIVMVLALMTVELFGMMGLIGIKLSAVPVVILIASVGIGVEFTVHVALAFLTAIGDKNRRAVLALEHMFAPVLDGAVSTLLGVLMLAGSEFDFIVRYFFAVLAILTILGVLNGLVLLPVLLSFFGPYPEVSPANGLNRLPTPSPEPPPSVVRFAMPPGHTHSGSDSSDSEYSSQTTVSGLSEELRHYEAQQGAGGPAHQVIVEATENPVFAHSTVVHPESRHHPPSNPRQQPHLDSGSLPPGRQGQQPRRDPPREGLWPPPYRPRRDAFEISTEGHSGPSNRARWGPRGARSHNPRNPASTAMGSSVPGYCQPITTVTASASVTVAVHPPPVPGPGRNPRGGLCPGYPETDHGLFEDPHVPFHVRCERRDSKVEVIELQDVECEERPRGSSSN

[2] = target: T1, full length human Patched-1 on 293 …; test: FACS competition: unlabeled Ihh against 1 nM Shh649 for Ptch1-expressing 293 cells
[3] = target: B7; test: competition ELISA as in paragraph 570; the legend gives Ihh and Shh the other way round
[4] = target: B7; test: competition ELISA: unlabeled Ihh against 5 nM biotinylated ShhN-Cys for immobilized Hhip1β12
[5] = target: B7; test: competition ELISA: unlabeled Hh against 5 nM biotinylated-ShhN-Cys for immobilized Hhip1β12
[6] = target: fully lipid-modified Shh secreted by human HT29 cells (human, UniProt Q15465 24-197, N-terminal palmitoyl and C-terminal cholesterol modifications); test: cell-based or functional assay
[7] = target: T2, Shh-Flag (human Shh residues 25-197 with C-terminal Flag-Tag) (human, UniProt Q15465 25-197); test: competition ELISA: Hip-L2 peptide dilution with 800 nM Hhip protein on Shh-Flag captured by anti-Flag M2, anti-His-HRP detection
T2 construct: range 25-197; not shown: C-terminal Flag-Tag

- IC50 [1]: 1.1 nM
- IC50 (read off the curve) [2]: ~3 nM
- IC50 [3]: 53 nM
- IC50 (read off the curve) [4]: ~90 nM
- IC50 [5]: 87 nM
B1: Human Ihh (residues 29-202), N-terminal His6-tag (ligand)
chain: not shown
notes: range 29-202; also called His6-Ihh; Indian Hedgehog

- IC50 [7]: 150000 nM
B3: Hip-L2 peptide (GDGMITLDDMEEMDGLSDFTG) of the competition ELISA (peptide)
peptide: GDGMITLDDMEEMDGLSDFTG
notes: also called Hhip1-L2 peptide; peptide derived from the Hhip1β12 L2 loop

- IC50 [1]: 140 nM
B5: Ihh T154I (type A1 brachydactyly mutant) (ligand)
chain: not shown

- IC50 [1]: 10 nM
B6: octyl-T154I (octylated Ihh T154I) (ligand)
chain: not shown
modifications: octylated (site not stated)

- IC50 [5]: 40 nM
B10: Human Dhh (residues 24-198), N-terminal His6-tag (ligand)
chain: not shown
notes: range 24-198; also called Desert Hedgehog

The next lines start with the binder.

B2: Hhip1β1 (β-propeller-EGF1, residues 193-637), C-terminal His6-tag (receptor)
chain: SNYLDQMEEYDKVEEISRKHKHNCFCIQEVVSGLRQPVGALHSGDGSQRLFILEKEGYVKILTPEGEIFKEPYLDIHKLVQSGIKGGDERGLLSLAFHPNYKKNGKLYVSYTTNQERWAIGPHDHILRVVEYTVSRKNPHQVDLRTARVFLEVAELHRKHLGGQLLFGPDGFLYIILGDGMITLDDMEEMDGLSDFTGSVLRLDVDTDMCNVPYSIPRSNPHFNSTNQPPEVFAHGLHDPGRCAVDRHPTDININLTILCSDSNGKNRSSARILQIIKGKDYESEPSLLEFKPFSNGPLVGGFVYRGCQSERLYGSYVFGDRNGNFLTLQQSPVTKQWQEKPLCLGTSGSCRGYFSGHILGFGEDELGEVYILSSSKSMTQTHNGKLYKIVDPKRPLMPEECRATVQPAQTLTSECSRLCRNGYCTPTGKCCCSPGWEGDFCRTAHHHHHH
- IC50, inhibition of Gli-luciferase activity in HT29/S12 co-culture [6]: 20.3 nM
- fold of IC50 against Hhip1ECD, Gli-luciferase co-culture [6]: ~4 fold

B4: octyl-Ihh (octylated Ihh wildtype) (ligand)
chain: not shown
modifications: octylated (site not stated)
- IC50 [1]: 0.64 nM

Binder: B7
- IC50, inhibition of Gli-luciferase activity in HT29/S12 co-culture [6]: 5 nM

B8: Hhip1β12 D383A (receptor)
chain: SNYLDQMEEYDKVEEISRKHKHNCFCIQEVVSGLRQPVGALHSGDGSQRLFILEKEGYVKILTPEGEIFKEPYLDIHKLVQSGIKGGDERGLLSLAFHPNYKKNGKLYVSYTTNQERWAIGPHDHILRVVEYTVSRKNPHQVDLRTARVFLEVAELHRKHLGGQLLFGPDGFLYIILGDGMITLDDMEEMAGLSDFTGSVLRLDVDTDMCNVPYSIPRSNPHFNSTNQPPEVFAHGLHDPGRCAVDRHPTDININLTILCSDSNGKNRSSARILQIIKGKDYESEPSLLEFKPFSNGPLVGGFVYRGCQSERLYGSYVFGDRNGNFLTLQQSPVTKQWQEKPLCLGTSGSCRGYFSGHILGFGEDELGEVYILSSSKSMTQTHNGKLYKIVDPKRPLMPEECRATVQPAQTLTSECSRLCRNGYCTPTGKCCCSPGWEGDFCRTAKCEPACRHGGVCVRPNKCLCKKGYLGPQCEHHHHHH
- IC50, Gli-luciferase co-culture assay [6]: ~10 nM
- fold of IC50 against wildtype Hipβ12, Gli-luciferase co-culture assay [6]: 2 fold

B9: Hhip1β12 D383R (receptor)
chain: SNYLDQMEEYDKVEEISRKHKHNCFCIQEVVSGLRQPVGALHSGDGSQRLFILEKEGYVKILTPEGEIFKEPYLDIHKLVQSGIKGGDERGLLSLAFHPNYKKNGKLYVSYTTNQERWAIGPHDHILRVVEYTVSRKNPHQVDLRTARVFLEVAELHRKHLGGQLLFGPDGFLYIILGDGMITLDDMEEMRGLSDFTGSVLRLDVDTDMCNVPYSIPRSNPHFNSTNQPPEVFAHGLHDPGRCAVDRHPTDININLTILCSDSNGKNRSSARILQIIKGKDYESEPSLLEFKPFSNGPLVGGFVYRGCQSERLYGSYVFGDRNGNFLTLQQSPVTKQWQEKPLCLGTSGSCRGYFSGHILGFGEDELGEVYILSSSKSMTQTHNGKLYKIVDPKRPLMPEECRATVQPAQTLTSECSRLCRNGYCTPTGKCCCSPGWEGDFCRTAKCEPACRHGGVCVRPNKCLCKKGYLGPQCEHHHHHH
- IC50, Gli-luciferase co-culture assay [6]: 57 nM
- fold change of IC50, Gli-luciferase co-culture assay [6]: ~13 fold
